Data: the supplement of paper PMC12042874
± gives the uncertainty stated by the source.

Test: amyloid nucleation score (Sup35N fusion, yeast selection) (log enrichment); library NNK1; higher = more nucleation; inactive = no reads after selection
Summary of the method: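 The nucleation score is the DiMSum log enrichment of output over input reads, centred on the mode score of non-aggregating sequences. Only sequences with 100 or more input reads were scored, using Illumina sequencing of input and output plasmid inserts. Psi-negative yeast expressing Sup35N fused to peptides of 20 random codons were induced 24 hours with 100 μM copper sulfate and grown 7 days at 30°C on medium lacking adenine and uracil.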

| Substance | amyloid nucleation score |
| --- | --- |
| GELCMLSVW | 0.729 ± 0.79 |
| GESKHKQSNECTQCC | 1.11 ± 0.37 |
| GEVFFLVRSSVVCWISLICA | -0.109 ± 0.39 |
| GFELEAIKEYFGCWPSHYRF | inactive |
| GFELVNVVGVIASLYNIIIV | 2.92 ± 0.2 |
| GFFHGHIGLQHMCELQCCSG | inactive |
| GFFYEWRVYCPAWINALWWH | 0.193 ± 0.77 |
| GFGPDQFITESDSFTSAFVS | 0.125 ± 0.55 |
| GFGPS | -0.275 ± 0.38 |
| GFGSELRYYYMSRGMYRIRP | 0.089 ± 0.88 |
| GFHSQG | -0.172 ± 0.41 |
| GFLICVFLSLVGYFGTCLRT | -0.554 ± 0.97 |
| GFLLGFCYPPQVQLVHVLTR | inactive |
| GFNLAW | -0.547 ± 0.56 |
| GFRSCRCVQGRANVFPYSMS | -0.103 ± 0.25 |
| GFTGFNRIGVLVGWKCN | 0.763 ± 0.92 |
| GFTMSTEGVS | 0.781 ± 0.55 |
| GFWVWSSSRRCLIVRFQVMG | -0.373 ± 0.56 |
| GFYRGVTTIFCSVFI | 7.777 ± 0.07 |
| GGGVMASDKPCTRVSLINKM | 0.161 ± 0.7 |
| GGHFWWNTGQARVNWTIRLE | 0.123 ± 0.48 |
| GGILPLTCSFVRTSIDQIGG | -0.154 ± 0.41 |
| GGIYSLSMNIVWATGCL | -0.361 ± 0.93 |
| GGLAGTTLKLRICF | -1.03 ± 1.9 |
| GGLDSNRQLVKFYTSWNYNC | -0.057 ± 0.39 |

| Substance | amyloid nucleation score |
| --- | --- |
| GGLWYTSTYSIYG | 2.42 ± 0.48 |
| GGTNAGRCMYGGRDI | 0.754 ± 0.7 |
| GGTWPYTAVRWVIWRLWGEG | 0.129 ± 0.64 |
| GGYVWVTTSGPVFIQVMNMW | 8.136 ± 0.06 |
| GHQILDSCLANCYGGCLIAC | 0.652 ± 0.61 |
| GHRINAYVVVVHLGSSGGGW | 2.07 ± 0.29 |
| GHVWEQGRQLGSAPKDR | 0.1 ± 0.71 |
| GICDLLAHG | 0.322 ± 0.25 |
| GICWLISCGRIVAGSSEQYV | 0.924 ± 0.3 |
| GIETRMDWEV | 1.67 ± 0.52 |
| GIKCTRFWQVPNRGDRV | -0.813 ± 0.48 |
| GILFDLICIDLCFIGVLLKM | -0.406 ± 0.44 |
| GIRCISLRKGHAGW | -1.65 ± 2.4 |
| GIRPEN | -0.521 ± 0.49 |
| GIRQLMAPYKPERWCWQRVG | 0.344 ± 0.51 |
| GISFFGGLQASFLLPLASLL | 0.413 ± 1.1 |
| GISFY | 1.28 ± 0.9 |
| GISSCWLRRFHVAKRARPSG | -1.02 ± 2.7 |
| GISWSRGWSAFLKCDRRTGC | 0.894 ± 0.8 |
| GITGSWINFRNCLTR | 0.774 ± 0.6 |
| GIVGSG | 2.29 ± 0.29 |
| GIYCLYFDILEVFLYTTTLS | 0.27 ± 0.42 |
| GKDLDMRRLWFGPAGIWWSK | 0.006 ± 0.59 |
| GKLSCYPCTGCL | -0.109 ± 1.4 |
| GKLTYLPRVKNLHLHFSFEN | -0.169 ± 0.51 |

| Substance | amyloid nucleation score |
| --- | --- |
| GKNDLSMNIGELWASGRGVV | 2.18 ± 0.24 |
| GKNFSTMAWP | -1.25 ± 2.7 |
| GKPWSSCHENSLINMDHSDV | inactive |
| GKRGSTQDEAKR | inactive |
| GLAGTLDPLTASDLLSRIGV | 0.182 ± 0.62 |
| GLDIFIWYMMVGIVYAFIYV | 2.38 ± 0.53 |
| GLEGIRIGWSSLVSMCLWRG | -0.016 ± 0.33 |
| GLIRSSVEVMLHGVHRWDPY | 0.037 ± 0.42 |
| GLLSRNLVLRGLNSGNWPFG | inactive |
| GLMLDLFVSSVYSIT | 0.655 ± 0.42 |
| GLMSLYRQSSSLNRKAGWLT | 0.46 ± 0.64 |
| GLNDYIKVFLYFDSVNRYLD | -0.694 ± 1.1 |
| GLPVGQGGELDY | 2.32 ± 0.14 |
| GLREMRNISAVFCFRLYICL | 1.58 ± 0.14 |
| GLVACQAMSNV | -0.138 ± 0.44 |
| GLVGTRICSWIDFRSV | -0.3 ± 1.5 |
| GLVRDTTTMNVSLSVMSSAR | 1.39 ± 0.84 |
| GLVSSSLGGYVDADSYFECD | inactive |
| GLVTRMSQTHPVSYNHITIL | -0.072 ± 0.28 |
| GLWKGLRHSSSKWERPHIRQ | 1.1 ± 0.62 |
| GLWYHA | 0.025 ± 0.62 |
| GMALKLFCALT | 0.078 ± 0.89 |
| GMLGDVTVYLACRLLISRFL | inactive |
| GMLNIDSVPDTYGLSQPVVP | -0.498 ± 0.57 |
| GMLRVYWSMSSVFSGMCDRC | 3.94 ± 0.1 |

| Substance | amyloid nucleation score |
| --- | --- |
| GMRLGTRSLQHQRWCAMLYL | -1.37 ± 1.8 |
| GMRVRNRFVVSDSSYPPASH | -0.024 ± 0.26 |
| GMTCSQGSEWMLERGNRTEV | -0.294 ± 0.66 |
| GMYLFECCYMGRRFSSWVGN | 0.055 ± 0.47 |
| GMYRSVCDKVYRGCTIEVVV | 1.55 ± 0.54 |
| GNAVYMNYFNVLDWNWSL | 4.966 ± 0.048 |
| GNCSMSVGATLEGLMVRVHI | 0.027 ± 0.68 |
| GNWYLCTGF | 1.58 ± 0.1 |
| GPDRLMDILAMPGGYSMLSM | 1.03 ± 0.54 |
| GPILDSNKASIPIV | -0.322 ± 0.96 |
| GPTATVPPRHTREFILFKYS | -0.593 ± 1 |
| GPTCDLRFAFNPHVTYGGHG | 1.29 ± 0.64 |
| GPVVLRTGLLVRFTYHIGRE | 1.15 ± 0.24 |
| GPYCHGWNLKNERAVSLRG | -0.647 ± 0.47 |
| GQICAWPITMVWAAGR | -0.391 ± 1.5 |
| GQIIMCAARLWLGKGCVS | -0.588 ± 1 |
| GQLWGEVVIVYCKFAMEWAY | 0.898 ± 0.27 |
| GQVHRFIWLVT | -0.11 ± 0.3 |
| GRAEAKLY | -0.118 ± 0.31 |
| GRCDWTVLDMVDMIGKVESQ | 0.273 ± 0.25 |
| GRFFRRLRECNLPHSNIHAY | 0.343 ± 0.42 |
| GRGVLDYNGTTKKARVNRLC | inactive |
| GRISRFLFQRDNVWPSLAKQ | 0.171 ± 0.52 |
| GRNRRDVMSRSYSVVG | -0.72 ± 1.1 |
| GRPICYKTHFSSLYVSEVDR | -1.19 ± 1.4 |

| Substance | amyloid nucleation score |
| --- | --- |
| GRRLIKSTQCGVNKVDSAIW | -0.184 ± 0.27 |
| GRRRSDQASTVRRSLCEGMA | 0.451 ± 0.67 |
| GRSGCCWMS | 2.77 ± 0.19 |
| GRSSD | -0.164 ± 0.84 |
| GRWWRLLLYCLVAVLAFVGF | 1.33 ± 0.6 |
| GSALPSIWSWERFRSLLRNL | -0.221 ± 0.45 |
| GSCCVKCDIHI | 0.167 ± 0.53 |
| GSCFTVWMIGPGRRTLLQVL | -0.079 ± 0.54 |
| GSDMIVYIYRCTVTLMGSST | 3.83 ± 0.099 |
| GSDWTRMMNVLAGGGGVGSE | -0.484 ± 0.58 |
| GSFRMVSMLSGISWARVARF | 3.04 ± 0.18 |
| GSGSAPCCTIAFMMLFGTEG | -0.057 ± 0.81 |
| GSGSDGQVGWFVANRDERRE | 0.495 ± 0.38 |
| GSGVGKLCGLCSPG | 0.274 ± 0.69 |
| GSICSVVVTMLVFSNKVTSL | -0.353 ± 0.6 |
| GSLWFRLGEFARTNFFNSVF | 0.05 ± 0.26 |
| GSMMWSMTADKLKFAGSVVC | 0.889 ± 0.54 |
| GSMWGGFPVG | 1.07 ± 0.85 |
| GSNTFI | 0.243 ± 0.31 |
| GSNVSSTM | 0.537 ± 0.51 |
| GSSAFRINLFFLSIVGYRRS | 5.61 ± 0.062 |
| GSSCNSLPFYVRDRFNTPCV | inactive |
| GSSFGFDYFDAHPMYLVTSY | 1.37 ± 0.48 |
| GSSGAWVCSGCL | -0.626 ± 1.2 |
| GSSTMIGMANSFVVGLDSNE | inactive |

| Substance | amyloid nucleation score |
| --- | --- |
| GSTRVRTCGRKLMCALS | 0.835 ± 0.24 |
| GSVDQSMC | 0.968 ± 0.45 |
| GSVSVSQQS | -1.4 ± 2.4 |
| GSVVYVIQGDMKRVLGFNGM | 5.42 ± 0.096 |
| GSWFYIFRV | 0.089 ± 0.34 |
| GSWIFCVFHLNMDFCSMGST | -0.023 ± 0.6 |
| GSYECV | 0.734 ± 1.2 |
| GTCYFTDQR | 0.491 ± 0.37 |
| GTFISLLLS | -0.077 ± 0.26 |
| GTGCFRCTVSTVGSVFIRDE | -0.27 ± 0.64 |
| GTGTAPGINPWLLDSFPAPV | 0.378 ± 0.28 |
| GTIENFHGVTN | 0.413 ± 0.49 |
| GTMVSLKTGFKDTSRLLNWS | -0.748 ± 0.41 |
| GTNCHL | -0.036 ± 0.79 |
| GTSESLGYYSVLRMDIYFGS | inactive |
| GVDKEINLFMYRPYRFVSGE | 1.1 ± 0.24 |
| GVGGLWVEDSWRQRLDSEWA | -0.014 ± 0.48 |
| GVGWVDGWSGSCFHWTGWCT | 3.46 ± 0.078 |
| GVKSQTMLGLQRSAAFILCY | -0.127 ± 0.55 |
| GVLNVL | -0.418 ± 0.62 |
| GVLSKSSKLFNCKDYCHSKY | 1.13 ± 0.35 |
| GVLYSDTLT | 1.5 ± 0.14 |
| GVMQFENIYGFVALMRRLMF | 0.668 ± 0.62 |
| GVPVYAVFLVDAMMYVCCMF | 3.51 ± 0.14 |
| GWNRTTSHWIRVFYCAVLVC | -0.346 ± 0.53 |

| Substance | amyloid nucleation score |
| --- | --- |
| GWVGLLH | 0.457 ± 0.31 |
| GYDRSGT | 0.135 ± 1.2 |
| GYGFFWCDCYRYDRGSRWTG | 1.93 ± 0.15 |
| GYGIMANS | -0.179 ± 0.51 |
| GYGYFSIVTTRMIVGVHVKC | -0.509 ± 0.57 |
| GYIGICGNKYYFPVDRYRAC | 1.28 ± 0.57 |
| GYILPLLDVDYVKSVMICFW | 3.8 ± 0.094 |
| GYISRHNAGSSAPVNVVRLR | -0.223 ± 0.65 |
| GYLCLGSCNRSVSLLSSTGS | 0.407 ± 0.47 |
| GYLLAERDLNIATARGSLLR | -0.514 ± 0.65 |
| GYSLYRM | 6.746 ± 0.044 |
| GYTTLTQGL | -0.513 ± 1.2 |
| HAFKPSAAPQWRTYPRFRSG | inactive |
| HALRSTLYMGSSVFLNAMDS | 0.053 ± 1.1 |
| HARRRCLDGFDMQGGIFM | 0.047 ± 0.47 |
| HAWVVVGRRGGKGLEAWCPV | -0.71 ± 0.81 |
| HCCSYLLKR | -0.174 ± 0.61 |
| HCFPCLVVIV | 0.121 ± 0.36 |
| HCFRWSMLGLRYATCPFQSD | -0.108 ± 0.37 |
| HCHSPATKPALTLMMY | -0.738 ± 0.93 |
| HCTLHSSVCSSGCWIE | 1.1 ± 0.97 |
| HCTSQ | 1.71 ± 0.13 |
